Earlier results, collected in patent US6770020B2 (priority 2001, dated 2004).

Settings: cited from earlier work

For “Gd-DTPA-hydroxypropylpoly(D-lysine) [Gd-DTPA-pdl]”, the membrane permeability is given as “membrane impermeable”.
